Results as given in the RNAGym collection of RNA variant scans (doi:10.7554/elife.80360).

B1: HDV Ribozyme (parent)
chain: GGCCGGCAUGGUCCCAGCCUCCUCGCUGGCGCCGGCUGGGCAACAUUCCGAGGGGACCGUCCCCUCGGUAAUGGCGAAUGGGACCCA

Variants of: B1
Test: self-cleavage, relative activity (ratio to wild type); higher = more cleavage; co-transcriptional

Going from GGUCGGCAUGGUCCCAGCCUCCUCGCUGGCGCCGGCUGGGCAACAUUCCGAGGGGACUGUCCCCUCGGUAAUGGCGAAUGGGACCCA to GGUCGGCAUGGUCCCAGCCUCCUCGCUGGCGCCGGCUGGGCAACAUUCCGAGGGGACCGUCCCCUCGGUGAUGGCGAAUGGGACCCA, the self-cleavage rises from 0.696 to 0.973.

Compared with GGUCGGCAUGGUCCCAGCCUCCUCGCUGGCGCCGGCUGGGCAACAUUCCGAGGGGACCGUCCCCUCGGUUAUGGCGAAUGGGACCCA, GGUCGGCCUGGUCCCAGCCUCCUCGCUGGCGCCGGCUGGGCAACAUUCCGAGGGGACCGUCCCCUCGGUAAUGGCGAAUGGGACCCA is lower in self-cleavage: 0.678 for the first, 0.269 for the second.

First: GGUCGGCAUGGUCCGAGCCUCCUCGCUGGCGCCGGCUGGGCAACAUUCCGAGGGGACCGUCCCCUCGGUAAUGGCGAAUGGGACCCA
Second: GGUCGGCAUGGUCCCAGCCUCCUCGCUGGCGCCGGCUGGGCAACAUUCCGAGGGGACCGUGCCCUCGGUAAUGGCGAAUGGGACCCA
The self-cleavage of the first is lower: 0.6 for the first, 0.816 for the second.

First: GGUCGGCAUGGUCCCAGCCUCCUCGCUGGCGCCGGCUGGGCAACAUUCCGCGGGGACCGUCCCCUCGGUAAUGGCGAAUGGGACCCA
Second: GGUCGGCAUGGUCCCAGCCUCCUCGCUGGCGCCGGCUGGGCAACAUUCCGUGGGGACCGUCCCCUCGGUAAUGGCGAAUGGGACCCA
The self-cleavage of the first is lower: 0.831 for the first, 0.992 for the second.

Going from GGUCGGCAUGGUCCCAGGCUCCUCGCUGGCGCCGGCUGGGCAACAUUCCGAGGGGACCGUCCCCUCGGUAAUGGCGAAUGGGACCCA to GGUCGGCAUGGUCCCAGCCUCCUAGCUGGCGCCGGCUGGGCAACAUUCCGAGGGGACCGUCCCCUCGGUAAUGGCGAAUGGGACCCA, the self-cleavage rises from 0.0779 to 0.328.

First: GGUCGGCAUGGUCCCAGCCUCCUCGCUGGCGCCGGCUGGGCAACGUUCCGAGGGGACCGUCCCCUCGGUAAUGGCGAAUGGGACCCA
Second: GGUCGGCAUGGUCCCAGCCUCCUCGCUGGCGCCGGCUGGGCAACCUUCCGAGGGGACCGUCCCCUCGGUAAUGGCGAAUGGGACCCA
The self-cleavage of the first is higher: 0.607 for the first, 0.43 for the second.

First: GGUCGGCAUGGUCGCAGCCUCCUCGCUGGCGCCGGCUGGGCAACAUUCCGAGGGGACCGUCCCCUCGGUAAUGGCGAAUGGGACCCA
Second: GGUCGGCAUGGUCUCAGCCUCCUCGCUGGCGCCGGCUGGGCAACAUUCCGAGGGGACCGUCCCCUCGGUAAUGGCGAAUGGGACCCA
The self-cleavage of the first is lower: 0.739 for the first, 0.758 for the second.

First: GGUCGGCAUGGUCCCAGCCUCCUCGCUGGCGCCGGCUGGGCAACAUUCCGAGGGGACCGUCCCCUCGGUAAUGGCGAAUGGGACCCC
Second: GGUAGGCAUGGUCCCAGCCUCCUCGCUGGCGCCGGCUGGGCAACAUUCCGAGGGGACCGUCCCCUCGGUAAUGGCGAAUGGGACCCA
The self-cleavage of the first is higher: 0.759 for the first, 0.0817 for the second.

Compared with GGUCGGCAUGGUCCCAGCCUCCUCGCUGGCGCCGGCUGGGCAACAUUCCGAGGGGUCCGUCCCCUCGGUAAUGGCGAAUGGGACCCA, GGUCGGUAUGGUCCCAGCCUCCUCGCUGGCGCCGGCUGGGCAACAUUCCGAGGGGACCGUCCCCUCGGUAAUGGCGAAUGGGACCCA is lower in self-cleavage: 0.861 for the first, 0.529 for the second.

Going from GGUCGGCAUGGUCCCAGCCUCCUCGCUGGCGCCGGCUGGGCAACAUUCCGAGGGGACCGUCCCCUCGGUAAUGGCGAGUGGGACCCA to GGUCGGCAUGGUCCCAGCCUCCUCGCUGGCGCCGGCUGGGCAACAUUCCGAGGGGACCGUCCCCUCGGUAAUGGCGAUUGGGACCCA, the self-cleavage falls from 0.446 to 0.117.

First: GGUCGGCAUGGUCCCUGCCUCCUCGCUGGCGCCGGCUGGGCAACAUUCCGAGGGGACCGUCCCCUCGGUAAUGGCGAAUGGGACCCA
Second: GGUCGGCAUGGUCCCAGCCUCCUCGCUGGUGCCGGCUGGGCAACAUUCCGAGGGGACCGUCCCCUCGGUAAUGGCGAAUGGGACCCA
The self-cleavage of the first is higher: 0.831 for the first, 0.345 for the second.

Going from GGUCGGCAUGGUCCCAGCCUCCUCGCUGGAGCCGGCUGGGCAACAUUCCGAGGGGACCGUCCCCUCGGUAAUGGCGAAUGGGACCCA to GGUCGGCAUGGUCCCAGCCUCCUCGCUGGGGCCGGCUGGGCAACAUUCCGAGGGGACCGUCCCCUCGGUAAUGGCGAAUGGGACCCA, the self-cleavage falls from 0.223 to 0.

Going from GGUCGGCAUGGUCCCAGCCUCUUCGCUGGCGCCGGCUGGGCAACAUUCCGAGGGGACCGUCCCCUCGGUAAUGGCGAAUGGGACCCA to GGUCGGCAUGGUUCCAGCCUCCUCGCUGGCGCCGGCUGGGCAACAUUCCGAGGGGACCGUCCCCUCGGUAAUGGCGAAUGGGACCCA, the self-cleavage falls from 0.525 to 0.509.

Compared with GGUCGGCAUGGUGCCAGCCUCCUCGCUGGCGCCGGCUGGGCAACAUUCCGAGGGGACCGUCCCCUCGGUAAUGGCGAAUGGGACCCA, GGUCGGCAUGGUCCCAGCCUCCUCGAUGGCGCCGGCUGGGCAACAUUCCGAGGGGACCGUCCCCUCGGUAAUGGCGAAUGGGACCCA is higher in self-cleavage: 0.179 for the first, 0.923 for the second.

First: GGUCGGCAUGGUCCCAGCCUCCUCGCUGGCGCCGGCUGGGCAACAUUCCGAGGGGACCGUCCCCUCGGUAGUGGCGAAUGGGACCCA
Second: GGUCGGCAUGGUCCCAGCCUCCUCGCUGGCGCCGGCUGGGCUACAUUCCGAGGGGACCGUCCCCUCGGUAAUGGCGAAUGGGACCCA
The self-cleavage of the first is higher: 0.89 for the first, 0.339 for the second.

First: GGUCGGCAUGGUCCCAGCCUCCUCGCUGGCGCCGGCUGGGCGACAUUCCGAGGGGACCGUCCCCUCGGUAAUGGCGAAUGGGACCCA
Second: GGGCGGCAUGGUCCCAGCCUCCUCGCUGGCGCCGGCUGGGCAACAUUCCGAGGGGACCGUCCCCUCGGUAAUGGCGAAAGGGACCCA
The self-cleavage of the first is lower: 0.483 for the first, 0.491 for the second.
